This data set concerns the molecule itself. In words: cryo-EM imaging of cells; unlabelled purified S-layer proteins added to Vps4 E209Q ΔslaA cells at 75°C for 1 h; cells plunge frozen and imaged (Glacios 200 kV); S-layer lattice seen on the cell surface.

B1: exogenous unlabelled S-layer protein SlaA, purified from wild-type S. acidocaldarius DSM639 (natural protein, UniProt Q4J6E5 25-1424, looked up)
chain: ITTTALTPPVSAGGIQAYLLTGSGAPASGLVLFVVNVSNIQVSSSNVTNVISTVVSNIQINAKTENAQTGATTGSVTVRFPTSGYNAYYDSVDKVVFVVVSFLYPYTTTSVNIPLSYLSKYLPGLLTAQPYDETGAQVTSVSSTPFGSLIDTSTGQQILGTNPVLTSYNSYTTQANTNMQEGVVSGTLTSFTLGGQSFSGSTVPVILYAPFIFSNSPYQAGLYNPMQVNGNLGSLSSEAYYHPVIWGRALINTTLIDTYASGSVPFTFQLNYSVPGPLTINMAQLAWIASINNLPTSFTYLSYKFSNGYESFLGIISNSTQLTAGALTINPSGNFTINGKKFYVYLLVVGSTNSTTPVEYVTKLVVEYPSSTNFLPQGVTVTTSSNKYTLPVYEIGGPAGTTITLTGNWYSTPYTVQITVGSTPTLTNYVSQILLKAVAYEGINVSTTQSPYYSTAILSTPPSEISITGSSTITAQGKLTATSASATVNLLTNATLTYENIPLTQYSFNGIIVTPGYAAINGTTAMAYVIGALYNKTSDYVLSFAGSQEPMQVMNNNLTEVTTLAPFGLTLLAPSVPATETGTSPLQLEFFTVPSTSYIALVDFGLWGNLTSVTVSAYDTVNNKLSVNLGYFYGIVIPPSISTAPYNYQNFICPNNYVTVTIYDPDAVLDPYPSGSFTTSSLPLKYGNMNITGAVIFPGSSVYNPSGVFGYSNFNKGAAVTTFTYTAQSGPFSPVALTGNTNYLSQYADNNPTDNYYFIQTVNGMPVLMGGLSIVASPVSASLPSSTSSPGFMYLLPSAAQVPSPLPGMATPNYNLNIYITYKIDGATVGNNMINGLYVASQNTLIYVVPNGSFVGSNIKLTYTTTDYAVLHYFYSTGQYKVFKTVSVPNVTANLYFPSSTTPLYQLSVPLYLSEPYYGSPLPTYIGLGTNGTSLWNSPNYVLFGVSAVQQYLGFIKSISVTLSNGTTVVIPLTTSNMQTLFPQLVGQELQACNGTFQFGISITGLEKLLNLNVQQLNNSILSVTYHDYVTGETLTATTKLVALSTLSLVAKGAGVVEFLLTAYPYTGNITFAPPWFIAENVVKQPFMTYSDLQFAKTNPSAILSLSTVNITVVGLGGKASVYYNSTSGQTVITNIYGQTVATLSGNVLPTLTELAAGNGTFTGSLQFTIVPNNTVVQIPSSLTKTSFAVYTNGSLAIVLNGKAYSLGPAGLFLLPFVTYTGSAIGANATAIITVSDGVGTSTTQVPITAENFTPIRLAPFQVPAQVPLPNAPKLKYEYNGSIVITPQQQVLKIYVTSILPYPQEFQIQAFVYEASQFNVHTGSPTAAPVYFSYSAVRAYPALGIGTSVPNLLVYVQLQGISNLPAGKYVIVLSAVPFAGGPVLSEYPAQLIFTNVTLTQ
modifications: highly glycosylated
notes: S-layer protein SlaA, Sulfolobus acidocaldarius DSM639, gene saci2355; endogenous protein extracted from the cell surface; The purified preparation also holds SlaB (mass spectrometry, Coomassie gel); also called unlabelled exogeneous S-layer proteins; purified S-layer proteins
Turning to B1, the binding result was “binds”.

The record behind these values is doi:10.1101/2025.02.04.636414, “The mechanics of a continuous self-assembling surface-layer aids cell division in an archaeon” (bioRxiv, 2025).
